Experimental data published in US20210317220A1 (Janssen / Centocor, published 2021).

Legend:
soluble human CD154 = biological target: T1, soluble human CD154 (human, UniProt P29965 113-261); experiment: ELISA of free and total sCD154 in platelet poor plasma of dosed human participants
T1 construct: also called sCD154; shCD154
T1 sequence: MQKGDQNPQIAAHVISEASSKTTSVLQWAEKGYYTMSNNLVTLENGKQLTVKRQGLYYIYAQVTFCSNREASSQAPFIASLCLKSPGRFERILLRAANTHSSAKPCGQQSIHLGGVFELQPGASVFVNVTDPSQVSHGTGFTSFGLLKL
Method: Mean free and total soluble CD154 (sCD154) concentrations were determined by ELISA in platelet poor plasma samples obtained from the participants administered C4LB231 according to the study described in Example 2. Free sCD154 concentration remained undetectable until 14 days after dosing indicating suppression of the target of […].

[1] = biological target: T2, rhesus monkey soluble CD154 (rhesus monkey, UniProt P63304 113-261, limits assumed); experiment: free and total sCD154 in platelet poor plasma of rhesus monkeys dosed IV or SC (3-month study)
T2 construct: Endogenous plasma protein measured in dosed animals; also called sCD154; free sCD154
T2 sequence (looked up): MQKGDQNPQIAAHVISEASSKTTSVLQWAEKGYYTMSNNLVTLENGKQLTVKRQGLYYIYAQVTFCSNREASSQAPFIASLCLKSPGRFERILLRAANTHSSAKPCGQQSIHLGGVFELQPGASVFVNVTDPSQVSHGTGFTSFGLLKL
Method: Rhesus monkeys were administered the anti-CD154 antibody C4LB231 intravenously (IV) or subcutaneously (SC) once weekly for 13 weeks. The control vehicle was 0.9% sterile saline (NaCl). Animals were dosed by IV or SC injection as described above for the 8-week study on days 1, 8, 15, 22, 29, 36, 43, 50, 57, 64, 71, 78, and 85 for a total of 13 doses. On days 29, 57, and 155 (recovery study animals only) animals received an intramuscular injection of a 1 mg dose of KLH antigen to the left thigh for a KLH-antigen challenge study. Blood samples were collected from the animals and evaluated as described below.
Free and total soluble CD154 (sCD154) were assessed in platelet poor plasma samples. […] The extent of reduction was greater at the higher dose levels. A dose-dependent decrease in free sCD154 coupled with dose-dependent increase in total sCD154 indicated good target engagement in plasma.

- binding result (soluble human CD154): binds
- binding result [1]: binds
B1: anti-CD154 antibody C4LB231 (antibody, human IgG1, kappa, V domains shown)
VH: QVQLVQSGAEVKKPGSSVKVSCKASGGTFSSYGISWVRQAPGQGLEWMGWISPIFGNTNYAQKFQGRVTITADESTSTAYMELSSLRSEDTAVYYCARSRYYGDLDYWGQGTLVTVSS
VL: DIQMTQSPSSLSASVGDRVTITCRASQSISSYLNWYQQKPGKAPKLLIYYANSLQSGVPSRFSGSGSGTDFTLTISSLQPEDFATYYCQQSDSIPWTFGQGTKVEIKR
notes: Human IgG1σ mAb (Fc-silencing mutations L234A, L235A, G237A, P238S, H268A, A330S, P331S); also called C4BL231; C4BL231 (Fc silent)
